Source: patent US20250297255A1 (ARSENAL BIOSCIENCES, published 2025)

Target: T1, Human TMPRSS4 (Transmembrane protease, serine 4), wild type full length (human, UniProt Q9NRS4 1-437)
T1 construct: Type II membrane protein over-expressed on HEK293T cells (also endogenous on H1975 and LUDLU-1 cells); also called TMPRSS4 WT; HEK293T-TMPRSS4
Assay: flow cytometry, monoclonal phage on HEK293T-TMPRSS4 cells;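 further: bound phage detected with a PE-labelled mouse anti-M13 monoclonal antibody, read by flow cytometry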
Procedure: Monoclonal phages were prepared, screened for binding to HEK293T-TMPRSS4 cells by flow cytometry. Monoclonal phage clones were incubated with HEK293T-TMPRSS4 cells, the cells were washed and then incubated with a PE conjugated mouse anti-M13 mAb, and washed again before being analyzed by flow cytometry. The positive candidates were selected based on cytometry results, then followed by next-gen sequencing of the positive hits.

T1 sequence (Q9NRS4 whole entry): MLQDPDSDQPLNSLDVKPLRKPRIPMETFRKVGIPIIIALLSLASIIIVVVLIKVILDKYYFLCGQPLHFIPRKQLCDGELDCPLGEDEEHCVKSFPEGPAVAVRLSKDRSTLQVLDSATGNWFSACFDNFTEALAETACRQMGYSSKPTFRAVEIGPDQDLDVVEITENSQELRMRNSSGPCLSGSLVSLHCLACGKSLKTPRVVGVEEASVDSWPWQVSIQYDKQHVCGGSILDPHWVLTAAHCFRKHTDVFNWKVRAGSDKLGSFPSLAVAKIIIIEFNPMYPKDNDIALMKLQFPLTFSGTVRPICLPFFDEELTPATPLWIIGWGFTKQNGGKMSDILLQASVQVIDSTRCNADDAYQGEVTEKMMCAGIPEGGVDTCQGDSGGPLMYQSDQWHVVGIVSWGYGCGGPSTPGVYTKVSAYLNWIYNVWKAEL

Binder | binding result
TMPRSS4 Ab72 scFv (VH-VL) (scFv, on monoclonal phage in the screen) scFv: EVQLLESGGGLVQPGGSLRLSCAASGFTFGAYVMHWVRQAPGKGLEWVSSISGGSTYYADSVKGRFTISRDNSKNTLYLQMNSLRAEDTAVYYCARHPVRGVIGAGWFDPWGQGTLVTVSSGGGGSGGGGSGGGGSDIQMTQSPSSLSASVGDRVTITCRASQNISRWLAWYQQKPGKAPKLLIYAASSLQSGVPSRFSGSGSGTDFTLTISSLQPEDFATYYCQQAISFPLTFGGGTKVEIK | binds
TMPRSS4 Ab8 scFv (VH-VL) (scFv, on monoclonal phage in the screen) scFv: QVQLVQSGAEVKKPGASVKVSCKASGYRFTSQYMHWVRQAPGQGLEWMGIINPSGGSTSYAQKFQGRVTMTRDTSTSTVYMELSSLRSEDTAVYYCARGRIAVAGHPLGYWGQGTLVTVSSGGGGSGGGGSGGGGSDIQMTQSPSSLSASVGDRVTITCRASQSISSWLAWYQQKPGKAPKLLIYGASSLQSGVPSRFSGSGSGTDFTLTISSLQPEDFATYYCQQANSFPPTFGGGTKVEIK | binds
TMPRSS4 Ab76 scFv (VH-VL) (scFv, on monoclonal phage in the screen) scFv: EVQLLESGGGLVQPGGSLRLSCAASGFTFSSYAMSWVRQAPGKGLEWVSAISGSGGNAYYADSVKGRFTISRDNAKNSLYLQMNSLRAEDTAVYYCAKNSWGSYRPRAFDIWGQGTMVTVSSGGGGSGGGGSGGGGSDIVMTQSPDSLAVSLGERATINCKSSQSVLYSSNNKNYLAWYQQKPGQPPKLLIYWASTRASGVPDRFSGSGSGTDFTLTISSLQAEDVAVYYCQQYLSLPYTFGQGTKVEIK | binds
TMPRSS4 Ab78 scFv (VH-VL) (scFv, on monoclonal phage in the screen) scFv: EVQLLESGGGLVQPGGSLRLSCAASGFTFSSYGMNWVRQAPGKGLEWVSAISGSGGRTYYADSVKGRFTISRDNAKNSLYLQMNSLRAEDTAVYYCAKGTYYSSPKYSFDYWGQGTLVTVSSGGGGSGGGGSGGGGSDIQMTQSPSSLSASVGDRVTITCRASQDIKNFLAWYQQKPGKAPKLLIYAASSLQSGVPSRFSGSGSGTDFTLTISSLQPEDFATYYCQQSYSTPWTFGQGTKLEIK | binds
TMPRSS4 Ab9 scFv (VH-VL) (scFv, on monoclonal phage in the screen) scFv: QVQLVQSGAEVKKPGASVKVSCKASGYTFTRYYMHWVRQAPGQGLEWMGWINPNSGGTNYAQKFQGRVTMTRDTSTSTVYMELSSLRSEDTAVYYCARGGSWGSGPLGYWGQGTLVTVSSGGGGSGGGGSGGGGSDIQMTQSPSSLSASVGDRVTITCQASQDISRFLHWYQQKPGKAPKLLIYGASNLKSGVPSRFSGSGSGTDFTLTISSLQPEDFATYYCQQSYSTPPTFGGGTKVEIK | binds
TMPRSS4 Ab74 scFv (VH-VL) (scFv, on monoclonal phage in the screen) scFv: EVQLLESGGGLVQPGGSLRLSCAASGFTFSSYAMHWVRQAPGKGLEWVSSISSSSTYIHYADSVKGRFTISRDNSKNTLYLQMNSLRAEDTAVYYCARVGRYYGSGSSLVDYWGQGTLVTVSSGGGGSGGGGSGGGGSDIQMTQSPSSLSASVGDRVTITCRASQSVSSWLAWYQQKPGKAPKLLIYDASSLQSGVPSRFSGSGSGTDFTLTISSLQPEDFATYYCQQAKSFPPTFGQGTKVEIK | binds
TMPRSS4 Ab77 scFv (VH-VL) (scFv, on monoclonal phage in the screen) scFv: QVQLVQSGAEVKKPGASVKVSCKASGNIFTAQYMHWVRQAPGQGLEWMGWMNPNTVYTGSAQKFQGRVTMTRDTSTSTVYMELSSLRSEDTAVYYCARDWVGDGYNSFDYWGQGTLVTVSSGGGGSGGGGSGGGGSDIVMTQSPDSLAVSLGERATINCKSSQSVLYSSNNKNYLAWYQQKPGQPPKLLIYWASTRESGVPDRFSGSGSGTDFTLTISSLQAEDVAVYYCQQYYTTPFTFGPGTKVDIK | binds
TMPRSS4 Ab75 scFv (VH-VL) (scFv, on monoclonal phage in the screen) scFv: EVQLLESGGGLVQPGGSLRLSCAASGFTFSSYAMSWVRQAPGKGLEWVSSISSASSYKYYADSVKGRFTISRDNSKNTLYLQMNSLRAEDTAVYYCARDIYSSGWRGYYYYGMDVWGQGTTVTVSSGGGGSGGGGSGGGGSDIQMTQSPSSLSASVGDRVTITCRASQGIRNDLNWYQQKPGKAPKLLIYAATRLQSGVPSRFSGSGSGTDFTLTISSLQPEDFATYYCQQAHSFPYSFGQGTRLEIK | binds
